The values below come from patent US20250340623A1 (AC IMMUNE, published 2025).

The target in assay [1] is monomeric alpha-synuclein (UniProt P37840 1-140). In words: SPR, captured mAb. As to the method:
(§1) Non-covalent immobilization of alpha-synuclein antibodies was performed using a target immobilization method of 2000 response units (RU). Antibodies were diluted in 10 mM sodium acetate pH 5.5 (GE Healthcare, BR-1003-52) to a final concentration of 5 μg/mL.
(§2) Binding affinity of alpha-synuclein antibodies to monomeric or fibrillar alpha-synuclein species was performed using a single-cycle kinetics method. The instrument was primed with 1×HBS-P+ buffer (10× stock from GE Healthcare, BR-1003-52 diluted in Milli-Q water). Injections of monomeric alpha-synuclein (aSyn) (Boston Biochem, SP-485), increasing in concentration from 0.62-50 nM prepared from serial 2-fold dilutions, were performed with contact times of 300 sec/injection at a flow rate of 30 μL/min. A dissociation phase of 900 sec followed the final 50 nM injection. Regeneration of the sensor to the goat anti-mouse antibody layer was achieved using 3 regenerations of 10 mM Glycine pH 1.7. […] Regeneration of the sensor to the goat anti-mouse antibody layer was achieved using 3 regenerations of 10 mM Glycine pH 1.7. Results obtained from single-cycle kinetics were evaluated by Biacore T200 evaluation software with 1:1 binding homogenous Langmuir model (with a global Rmax) with Cycle 5 as a blank subtraction. The following kinetic parameters were obtained: on-rate (ka), off-rate (kd), affinity constant (KD, ratio of kd by ka), maximum response (Rmax), and goodness of fit (Chi2).
(§3) Non-covalent capture of the alpha-synuclein antibodies was performed in three separate runs.
(SPR reads the build-up and loss of mass on a sensor chip optically.)

The target of the next assay is alpha-synuclein fibrils (UniProt P37840 1-140). In words: SPR, captured mAb. The protocol:
as §1, §2, §3

B1: ACI-8032-6304F3-Ab1 (antibody, V domains shown)
VH: QVQLQQSGAELARPGASVKLSCKASGYTFTSYGVSWVKQRTGQGLEWIGEIYPRSGNTYYNEKFKGKATLTADKSSSTAYMELRSLTSEDSAVYFCASESYYGDYDWYFDVWGTGTTVTVSS
VL: DVLMTQIPLSLPVSPGDQVSISCRSSQSIVHSNGNTYLEWYLQKPGQSPKPLIYKVSNRFSGVPDRFSGSGSGTDFTLKISRVEAEDLGVYYCFQGSHVPPTFGGGTKLEIK
notes: mouse hybridoma mAb; VH/VL only; also called 6304F3D12
As a reminder, the Kd is the free concentration of one partner at which half of the binding sites on the other are occupied at equilibrium, for simple one-to-one binding. High values mean weaker binding, low ones tighter binding. For orientation: koff means the rate constant with which the complex falls apart. A higher koff goes with fast dissociation. Usually kon stands for the second-order rate constant of association. A higher kon goes with faster complex formation. For the molecule B1, in assay [1], binding was characterised by a dissociation constant (Kd) of 0.00475 µM, the koff came out at 0.016 s⁻¹ and the kon was 3.37e+06 M⁻¹ s⁻¹. In the assay with alpha-synuclein fibrils, the affinity, expressed as Kd, was 0.0406 µM; the koff is 0.000527 s⁻¹; the kon was found to be 13000 M⁻¹ s⁻¹.

B2: ACI-8032-6301A10-Ab2 (antibody, V domains shown)
VH: QVQLQQSGAELARPGASVKLSCKASGYTFTSYGISWVKQRTGQGLEWIGEIYPRSGNTYYNEKFKGKATLTADKSSSTAYMELRSLTSEDSAVYFCASESYYGDYDWYFDVWGTGTTVTVSS
VL: DVLMTQTPLSLPVSLGDQASISCRSSHSIEHSNGNTYLEWCLQKPGQPPKFLIYKVSNRFSGVPDRFSGSGSGTDFTLRISRVEAEDLGVYYCFQGSHVPPTFGGGTKLEIK
notes: mouse hybridoma mAb; VH/VL only; also called 6301A10E12
In assay [1], B2 displayed a Kd of 0.0115 µM, a koff of 0.00517 s⁻¹ and a kon of 450000 M⁻¹ s⁻¹. In the assay with alpha-synuclein fibrils, this molecule gave a Kd of 0.00269 µM, a koff of 0.000193 s⁻¹ and a kon of 71800 M⁻¹ s⁻¹.

B3: ACI-8032-6301C8-Ab2 (antibody, V domains shown)
VH: QVQLQQSGAELARPGTSVKLSCKASGYTFTTYGISWVKQRTGQGLEWIGEIYPRSGNTYYNEKFKGKATLTADKPSSTAYMELRSLTSEDSAVYFCASESYYGDYAWYFDVWGTGTTVTVSS
VL: DVLMTQIPLSLPVSLGDQASISCRSSQSIVHSNGNTYLEWHLQKPGQSPKLLIYEVSNRFSGVPDRFSGSGSGTDFTLNISRVEAEDLGVYYCFQGSHVPPTFGGGTKLEIK
notes: mouse hybridoma mAb; VH/VL only; also called 6301C8G12
In assay [1], B3 showed a Kd of 0.00876 µM, a koff of 0.00329 s⁻¹ and a kon of 376000 M⁻¹ s⁻¹. In addition, in the assay with alpha-synuclein fibrils, the Kd is 0.0428 µM, the off-rate (koff) is 0.00355 s⁻¹ and the kon turned out to be 83000 M⁻¹ s⁻¹.

B4: ACI-8032-6307F1-Ab2 (antibody, V domains shown)
VH: QVQLQQSGAELARPGASVKLSCKASGYTFTSYGMSWVKQRTGQGLEWIGEIYPRSGNTYYNEKFKGKATLTSDKSSSTSYMELRSLTSEDSAVYFCASESYYGDYAWYFDVWGTGTTVTVSS
VL: DVLMTQTPLSLPVSLGDQASISCRSSQSVVHSNGITYLEWYLQKPGQSPKLLIYKVSNRFSGVPDRFSGSGSGTYFTLKISRVEAEDLGVYYCFQGSHVPPTFGGGTKLEIK
notes: mouse hybridoma mAb; VH/VL only; also called 6307F1H10
B4: in assay [1], binding was characterised by a dissociation constant (Kd) of 0.019 µM, the koff is 0.0248 s⁻¹ and the kon came out at 1.3e+06 M⁻¹ s⁻¹. For the same molecule, in the assay with alpha-synuclein fibrils, the dissociation constant Kd was determined as 0.026 µM, the koff was 0.000691 s⁻¹ and the kon turned out to be 26500 M⁻¹ s⁻¹.

B5: ACI-8032-6314A3-Ab3 (antibody, V domains shown)
VH: QVQLQQSGAELARPGASVKLSCKASGYTFTSYGVSWVKQRTGQGLEWIGEIYPRSGNTYYNEKFKGKATLTADKSSSTAYMELRSLTSEDSAVYFCASESYYGDYDWYFDVWGTGTTVTVSS
VL: DVLMTQIPLSLPVSPGDQVFISCRSSQSIVHSNGNTYLEWYLQKPGQSPKPLIYKVSNRFSGVPDRFSGSGSGTDFTLKISRVEAEDLGVYYCFQGSHVPPTFGGGTKLEIK
notes: mouse hybridoma mAb; VH/VL only; also called 6314A3E4
Regarding B5, in assay [1], the affinity, expressed as Kd, was 0.0167 µM; the koff turned out to be 0.0382 s⁻¹; the kon was determined as 2.28e+06 M⁻¹ s⁻¹. In the assay with alpha-synuclein fibrils, this molecule came in with a Kd of 0.0415 µM, a koff of 0.000325 s⁻¹ and a kon of 7830 M⁻¹ s⁻¹.

B6: ACI-7079-3107E6-Ab1 (antibody, V domains shown)
VH: QVTLKESGPGILQPSQTLSLTCSFSGFSLSTFGMGVGWIRQPSGKGLEWLTHIWWDDDKYYNPALKSRLTISKDASKNQMFLKIANVDTADTATYFCARIGDYYGSRGFFDVWGTGTTVTVSS
VL: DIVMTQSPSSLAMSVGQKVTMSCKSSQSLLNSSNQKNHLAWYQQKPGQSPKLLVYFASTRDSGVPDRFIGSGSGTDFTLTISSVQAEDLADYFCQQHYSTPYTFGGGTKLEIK
notes: mouse hybridoma mAb; VH/VL only; also called 3107E6A3
As to B6, in assay [1], binding was characterised by a dissociation constant (Kd) of 0.00112 µM, the koff amounted to 0.000859 s⁻¹ and the kon amounted to 765000 M⁻¹ s⁻¹. Moreover, in the assay with alpha-synuclein fibrils, the Kd came out at 0.00266 µM, the koff came to 0.000146 s⁻¹ and the kon was 55100 M⁻¹ s⁻¹.

B7: ACI-8031-6207G10-Ab1 (antibody, V domains shown)
VH: QVQLQQSGAELVKPGASVKISCKASGYAFSSYWMNWVKQRPGKGLEWIGQIYPGDGDTNYNGKFKGKATLTADRSSSTAYMQLSSLTSEDSAVYFCAITHYDYWGQGTTLTVSS
VL: DILLTQSPAILSVSPGDRVSFSCRASQSIGTRIHWYQQRTNGSPRLLIKYASESISGTPSRFSGSGSGTDFTLSINSVESEDIADYYCQQSNSWPLTFGAGTKLELK
notes: mouse hybridoma mAb; VH/VL only; also called 6207G10E6
B7: in assay [1], the affinity, expressed as Kd, was 0.00367 µM; the koff was 0.000314 s⁻¹; the kon was found to be 85300 M⁻¹ s⁻¹. Besides, in the assay with alpha-synuclein fibrils, the Kd was found to be 0.0133 µM, the koff is 0.00015 s⁻¹ and the kon is 11300 M⁻¹ s⁻¹.

B8: ACI-7079-3106F2-Ab1 (antibody, V domains shown)
VH: EVQLQQSGAELVRPGASVKLSCTASGFNVKDDYMHWVKQRPEQGLEWIGWIDPENGDTEYASKFQGKATLTADTSSNTAYLQLSGLTSVDTAVYYCTTAGTSPYYFDYWGQGTTLTVSS
VL: DIVMTQSQKFMSTSVGDRVSVTCKASQNVGTNVAWYQQKVGQSPKALIYSASYRYSGVPDRFTGSGSGTDFTLTISNVQSEDLADYFCQQYNSYPLTFGSGTKLEIK
notes: mouse hybridoma mAb; VH/VL only; also called 3106F2C8
In assay [1], B8 came in with a Kd of 0.392 µM, a koff of 0.135 s⁻¹ and a kon of 344000 M⁻¹ s⁻¹. In the assay with alpha-synuclein fibrils, this molecule had a Kd of 0.0315 µM, a koff of 0.000367 s⁻¹ and a kon of 11700 M⁻¹ s⁻¹.

B9: ACI-7079-3112H1-Ab1 (antibody, V domains shown)
VH: EVQLQQSGPELVKPGASVKISCKASGYTFSDYFMNWVKQSHGKSLEWIGDINPNNGGSSYIQKFKGKATLTVDKSSTTAYMELRSLTSEDSAVYYCARGSNYAMDSWGQGTSVTVSS
VL: DIVMSQSPSSLAVSAGEKVTMSCKSSQSLLNSRTRKNYLAWYQQKPGQSPKLLIYWASTRESGVPDRFTGSGSGTDFTLTISSVQAEDLAVYYCKQSYDLWTFGGGTKLEIK
notes: mouse hybridoma mAb; VH/VL only; also called 3112H1F3
In assay [1], B9 gave a Kd of 0.0105 µM, a koff of 0.00225 s⁻¹ and a kon of 214000 M⁻¹ s⁻¹. In the assay with alpha-synuclein fibrils, the Kd was determined as 0.0193 µM, the koff is 0.000216 s⁻¹ and the kon was 11200 M⁻¹ s⁻¹.

B10: ACI-8032-6301G2-Ab2 (antibody, V domains shown)
VH: EVQLQQSGPELVKPGASVKISCKASGYTFTDYFMNWVKQSHGKSLEWIGDINPNIGVTNYNPKFKDRATLTVDKSSSSAYMELRSLTSEDSTVYYCARGGGSNPLYYAMDYWGQGTSVTVSS
VL: DIVMSQSPSSLAVSAGEKVTMSCKSSQSLLNSRTRKNYLAWYQQKPGQSPKLLIYWASTRESGVPDRFTGSGSGTDFTLTISSVQAEDLAVYFCKQSYDLWTFGGGTKLEIK
notes: mouse hybridoma mAb; VH/VL only; also called 6301G2D11
With B10, in assay [1], binding was characterised by a dissociation constant (Kd) of 0.606 µM, the koff was 0.000237 s⁻¹ and the kon came out at 390 M⁻¹ s⁻¹. In the assay with alpha-synuclein fibrils, this molecule registered a Kd of 3.35 µM and a koff of 0.000353 s⁻¹.

B11: ACI-8030-6106F5-Ab1 (antibody, V domains shown)
VH: QVQLQQSGPELVKPGASVKISCKASGYSFTTYYIHWMKQRPGQGPEWIGWIYPGRGYTKYNEKFKDKAAQTADTSSNTAYMQLSSLRSEDSAVYYCARDWETGFPYWGQGTLVTVSA
VL: DIVLTQSPASLAVSLGQRATISCKASQSVDYGGDSWLNWYQQKPGQPPKLLIYAASNLDSGIPARFGGSGSGTDFTLNIHPVEEEDAATYYCQQSGEDPFTFGGGTNLEIK
notes: mouse hybridoma mAb; VH/VL only; also called 6106F5B10
Turning to B11, in assay [1], the affinity, expressed as Kd, was 0.00195 µM; the koff was 0.00023 s⁻¹; the kon amounted to 118000 M⁻¹ s⁻¹. In the assay with alpha-synuclein fibrils, this molecule registered a Kd of 0.0167 µM, a koff of 0.000232 s⁻¹ and a kon of 13900 M⁻¹ s⁻¹.
